Measured values taken from patent publication WO2018225033A1.

Experiments:
FcyR = experiment: cell-based or functional assay
[1] = target: rabbit Fc-tagged recombinant extracellular human ICOS (human) (UniProt Q9Y6W8); experiment: SPR, Biacore T200, 1:1 kinetics model, rabbit Fc-tagged extracellular human ICOS
[2] = target: rabbit Fc-tagged recombinant extracellular human ICOS (human) (UniProt Q9Y6W8); experiment: SPR, Biacore; reference is human ICOS-L binding to dimeric human ICOS (FIG. 15B)

Sequence of UniProt Q9Y6W8 (Q9Y6W8 21-140): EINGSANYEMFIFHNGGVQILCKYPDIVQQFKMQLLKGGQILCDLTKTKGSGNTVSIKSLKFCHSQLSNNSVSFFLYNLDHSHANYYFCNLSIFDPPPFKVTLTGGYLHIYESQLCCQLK

IFN-γ induction in activated human PBMC assay (FcyR): > 2 fold
IFN-γ induction in modified mixed lymphocyte reaction (FcyR): > 2 fold
Kd [1]: 1.34 nM
fold higher affinity than the ICOS-L/ICOS interaction [2]: 17 fold
B1: H2L5 IgG4PE (antibody, V domains shown)
VH: QVQLVQSGAEVKKPGSSVKVSCKASGYTFTDYAMHWVRQAPGQGLEWMGLISIYSDHTNYNQKFQGRVTITADKSTSTAYMELSSLRSEDTAVYYCGRNNYGNYGWYFDVWGQGTTVTVSS
VL: EIVLTQSPATLSLSPGERATLSCSASSSVSYMHWYQQKPGQAPRLLIYDTSKLASGIPARFSGSGSGTDYTLTISSLEPEDFAVYYCFQGSGYPYTFGQGTKLEIK
